# Data: PMC7093204 (Nature, 2020)
# B1: Rsc6 (natural protein)
# chain: MVTQTNPVPVTYPTDAYIPTYLPDDKVSNLADLKKLIEMDSRLDLYLTRRRLDTSINLPTNTKTKDHPPNKEMLRIYVYNTTESSPRSDSGTPADSGKTTWTLRIEGKLLHESANGKHPFSEFLEGVAVDFKRLKPLGMGKKRKRDSSLSLPLNLQQPEYNDQDSTMGDNDNGEDEDSAEAESREEIVDALEWNYDENNVVEFDGIDIKRQGKDNLRCSITIQLRGVDGGKVQYSPNLATLIGMQTGSVNDAVYSIYKYILINNLFVTEQTEAQDGSNDAEDSSNENNNKNGAGDDDGVEGSTPKDKPELGEVKLDSLLQKVLDTNAAHLPLMNVVQTVNKLVSPLPPIILDYTIDLSKDTTYGATTLDVDVSHILHQPQPQPNLQKEEETDAEDTAKLREITKLALQLNSSAQKYQFFHELSLHPRETLTHYLWSSKQNELVLQGDQYFNEDAARTSDIYSNNNNDRSLMGNISLLYSQGRL
# B2: Rsc8 (natural protein)
# chain: MSDTEKDKDVPMVDSHEATEEPPTTSTNTPSFPHLAQEQAKEESATLGAEVAHKKINYEQEAQKLEEKALRFLAKQTHPVIIPSFASWFDISKIHEIEKRSNPDFFNDSSRFKTPKAYKDTRNFIINTYRLSPYEYLTITAVRRNVAMDVASIVKIHAFLEKWGLINYQIDPRTKPSLIGPSFTGHFQVVLDTPQGLKPFLPENVIKQEVEGGDGAEPQVKKEFPVNLTIKKNVYDSAQDFNALQDESRNSRQIHKVYICHTCGNESINVRYHNLRARDTNLCSRCFQEGHFGANFQSSDFIRLENNGNSVKKNWSDQEMLLLLEGIEMYEDQWEKIADHVGGHKRVEDCIEKFLSLPIEDNYIREVVGSTLNGKGGDSRDGSVSGSKLMECVNDAVQTLLQGDDKLGKVSDKSREISEKYIEESQAIIQELVKLTMEKLESKFTKLCDLETQLEMEKLKYVKESEKMLNDRLSLSKQILDLNKSLEELNVSKKLVLISEQVDSGIQLVEKDQEGDDEDGNTATGHGVKRVGKEGEEVGEGDSIAKLQPQVYKPWSL
# B3: Sfh1 (natural protein)
# chain: MSHQNQLIPQAYISNFHNRLTNEDDGIPIFTMAQQTRQHKRAKVVNYAEYDNDLFDEFNMNGSNFNNADTHYKDNAVSHENTPALTNGVTMDGSEYNVLENMNGADSIISNNKYDAGSNMVVESLSGLNSNNNASNGPSNKAQAQDIGNAVLPDLQDQHHNPFNILRYPKIRDTFINGKVVSPYRLNTDQETKANANSGEAIMIPITLDIEHMGHTIKDQFLWNYNDDSISPEEFASIYCKDLDMTSATLQTQIANIIKEQLKDLENIAATEIMSDLHVIINLTCNLQDRFFEDNFQWNLNDKSLTPERFATSIVQDLGLTREFIPLISQSLHETILKIKKDWVDGHLIQDHVPNDAAFGYLSGIRLDIDELGSNWCPRVEILTKEEIQKREIEKERNLRRLKRETDRLSRRGRRRLDDLETTMRM
# Tests used:
# Rsc8 = molecular target: B2; assay: cryo-EM structure
# cryo-EM structure = molecular target: the molecule itself; assay: cryo-EM structure
Binder,binding result (Rsc8),binding result (cryo-EM structure)
B1,binds,–
B2,–,binds
B3,binds,–
